# Results published in article PMC12205872, “ESSENTIAL MEIOTIC ENDONUCLEASE 1 is required for chloroplast development and DNA repair in rice”.
# T1: OsEME1 (MBP removed by TEVp) (Oryza sativa L. japonica cv. KY131, UniProt Q0J9J6 1-650)
# T1 sequence: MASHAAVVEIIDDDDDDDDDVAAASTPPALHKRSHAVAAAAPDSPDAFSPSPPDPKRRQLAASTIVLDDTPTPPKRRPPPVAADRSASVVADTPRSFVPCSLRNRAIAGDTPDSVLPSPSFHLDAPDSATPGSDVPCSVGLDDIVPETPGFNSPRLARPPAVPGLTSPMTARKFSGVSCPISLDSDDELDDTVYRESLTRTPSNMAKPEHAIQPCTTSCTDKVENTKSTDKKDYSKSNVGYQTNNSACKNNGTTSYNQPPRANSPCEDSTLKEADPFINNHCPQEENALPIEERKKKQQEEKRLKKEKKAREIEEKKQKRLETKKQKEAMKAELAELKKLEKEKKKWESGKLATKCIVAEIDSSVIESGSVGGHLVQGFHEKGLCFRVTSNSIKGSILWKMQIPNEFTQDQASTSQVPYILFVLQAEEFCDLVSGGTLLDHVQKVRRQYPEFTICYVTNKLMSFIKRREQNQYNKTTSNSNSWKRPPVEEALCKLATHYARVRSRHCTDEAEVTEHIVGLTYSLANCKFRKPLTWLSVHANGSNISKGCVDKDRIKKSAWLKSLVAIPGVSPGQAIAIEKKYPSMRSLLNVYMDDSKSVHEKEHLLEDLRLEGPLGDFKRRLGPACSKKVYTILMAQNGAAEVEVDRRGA
# T2: OsEME1-MBP (MBP fusion, used in MST) (Oryza sativa L. japonica cv. KY131, UniProt Q0J9J6 1-650)
# T2 sequence: T1 sequence
# T3: OsMUS81 (MBP removed by TEVp) (Oryza sativa L. japonica cv. KY131, UniProt Q8GT06 1-660)
# T3 sequence: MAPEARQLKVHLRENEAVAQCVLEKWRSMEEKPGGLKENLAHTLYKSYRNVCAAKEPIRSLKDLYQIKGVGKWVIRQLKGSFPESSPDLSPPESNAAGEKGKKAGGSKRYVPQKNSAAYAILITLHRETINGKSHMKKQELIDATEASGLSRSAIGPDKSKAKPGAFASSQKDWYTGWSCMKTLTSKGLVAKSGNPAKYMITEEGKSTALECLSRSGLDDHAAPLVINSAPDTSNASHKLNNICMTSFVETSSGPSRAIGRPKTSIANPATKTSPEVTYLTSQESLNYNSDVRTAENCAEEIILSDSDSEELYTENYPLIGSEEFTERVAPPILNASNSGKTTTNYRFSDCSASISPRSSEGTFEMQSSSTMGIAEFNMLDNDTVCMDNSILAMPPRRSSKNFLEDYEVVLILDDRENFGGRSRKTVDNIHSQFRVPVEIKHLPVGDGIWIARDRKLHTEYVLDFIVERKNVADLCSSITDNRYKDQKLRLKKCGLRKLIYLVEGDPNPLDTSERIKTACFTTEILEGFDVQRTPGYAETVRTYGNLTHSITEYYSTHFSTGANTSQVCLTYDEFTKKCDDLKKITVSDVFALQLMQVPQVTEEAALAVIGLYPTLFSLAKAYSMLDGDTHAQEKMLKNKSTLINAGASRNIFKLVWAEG
# B1: OsGLK2-Y12 (mixed)
# DNA 1: GAAGAAGAAGGACGACGAGGAAAGGTCGTCGTCGTTGCCGGAGGAGAAAG
# DNA 2: CTCCGTCGTCACCGCGCTCAGGACCCCTTTCCTCGTCGTCCTTCTTCTTC
# B2: OsGLK1-Y12 (mixed)
# DNA 1: CGTCGATGACATAGACTTCGGGGACTTCTTCCTGAGGCTGGAGGACGGTG
# DNA 2: GAAGTCGGTGAAGATCTCGGCCGGGGTCCCCGAAGTCTATGTCATCGACG
# B3: Y12 (mixed)
# DNA 1: GACGCTGCCGAATTCTGGCTTGCTAGGACATCTTTGCCCACGTTGACCCG
# DNA 2: GCGATAGTCTCTAGACAGCATGTCCTAGCAAGCCAGAATTCGGCAGCGTC
# B4: X12 (structured_DNA)
# DNA 1: B3 DNA 1
# DNA 2: CGGGTCAACGTGGGCAAAGATGTCCTAGCAATGTAATCGTCTATGACGTC
# DNA 3: GACGTCATAGACGATTACATTGCTAGGACATGCTGTCTAGAGACTATCGC
# DNA 4: B3 DNA 2
# B5: pre-X12 (mixed)
# DNA 1: B3 DNA 1
# DNA 2: B4 DNA 2
# DNA 3: B3 DNA 2
# Legend:
# [1] = molecular target: T1, OsEME1 (MBP removed by TEVp); test: EMSA; 20 uM protein, 1 mM Mg2+, 5 mM ATP; EMSA/cleavage: 25 mM Tris-HCl pH 7.5, 1 mM MgCl2, 100 mg/mL BSA (so in the source), 1 mM DTT, 5 mM ATP, 2.5 uM Cy5 substrate, 20 uM protein, 30 C, 15% TBE-PAGE after; settings: protein: recombinant, tags: MBP cleaved by TEVp, splayed Y: X1 1-25 paired with X2 26-50, 25 nt unpaired arms
# [2] = molecular target: T2, OsEME1-MBP (MBP fusion, used in MST); test: MST; 100 nM DNA, 30 C; substrate called Y-Flag in Methods; EMSA/cleavage: 25 mM Tris-HCl pH 7.5, 1 mM MgCl2, 100 mg/mL BSA (so in the source), 1 mM DTT, 5 mM ATP, 2.5 uM Cy5 substrate, 20 uM protein, 30 C, 15% TBE-PAGE after; settings: protein: recombinant; tags: MBP; splayed Y: X1 1-25 paired with X4 26-50; 25 nt unpaired 3' arm of X1 and 5' arm of X4
# [3] = molecular target: T3, OsMUS81 (MBP removed by TEVp); test: EMSA; 1 mM Mg2+, 5 mM ATP; not responsible for cleavage; EMSA/cleavage: 25 mM Tris-HCl pH 7.5, 1 mM MgCl2, 100 mg/mL BSA (so in the source), 1 mM DTT, 5 mM ATP, 2.5 uM Cy5 substrate, 20 uM protein, 30 C, 15% TBE-PAGE after; settings: protein: recombinant, tags: MBP cleaved by TEVp, label: Cy5 on X1 (3' end)
binder,measurement,setting,value
B1,binding result,[1]; label: 5' Cy5 on GLK2 X1,binds
B2,binding result,[1]; label: 5' Cy5 on GLK1 X1,binds
B3,Kd,[2],16.3 ± 2.16 µM
B4,binding result,[3]; four-way Holliday junction with 12-bp mobile homologous core,binds
B5,binding result,"[3]; three-strand junction: X1 1-25 with X4 26-50, X1 26-50 with X2 1-25, X2 3' and X4 5' arms single-stranded",binds
